Assay results taken from article PMC10397247.
Each block holds one binder with its values, some of them ahead of it.

Assays:
[1] = biological target: T1, APC4264-AA; experiment: two-hybrid library CCmax; conditions: mean of both orientations;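 further: natural log of median RNA to DNA barcode read ratio; higher means stronger binding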
T1 chain: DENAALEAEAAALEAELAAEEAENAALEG

[2] = biological target: T2, APC7099-AA; experiment: two-hybrid library CCmax; conditions: mean of both orientations;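 further: natural log of median RNA to DNA barcode read ratio; higher means stronger binding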
T2 chain: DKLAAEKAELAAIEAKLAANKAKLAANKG

[3] = biological target: T3, APC8910-AA; experiment: two-hybrid library CCmax; conditions: mean of both orientations;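 further: natural log of median RNA to DNA barcode read ratio; higher means stronger binding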
T3 chain: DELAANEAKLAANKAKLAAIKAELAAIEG

[4] = biological target: T4, APC6108-AA; experiment: two-hybrid library CCmax; conditions: mean of both orientations;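 further: natural log of median RNA to DNA barcode read ratio; higher means stronger binding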
T4 chain: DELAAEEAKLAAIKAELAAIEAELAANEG

[5] = biological target: T5, APC4436-AA; experiment: two-hybrid library CCmax; conditions: mean of both orientations
T5 chain: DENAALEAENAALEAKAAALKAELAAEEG

[6] = biological target: T6, APC9096-AA; experiment: two-hybrid library CCmax; conditions: mean of both orientations
T6 chain: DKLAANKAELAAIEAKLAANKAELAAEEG

[7] = biological target: T7, APC5383-AA; experiment: two-hybrid library CCmax; conditions: mean of both orientations
T7 chain: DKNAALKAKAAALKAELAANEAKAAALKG

[8] = biological target: T8, APC8191-AA; experiment: two-hybrid library CCmax
T8 chain: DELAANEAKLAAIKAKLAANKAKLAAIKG

[9] = biological target: T9, APC4011-AA; experiment: two-hybrid library CCmax
T9 chain: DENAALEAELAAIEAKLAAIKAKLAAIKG

[10] = biological target: T10, APC9319-AA; experiment: two-hybrid library CCmax; conditions: mean of both orientations
T10 chain: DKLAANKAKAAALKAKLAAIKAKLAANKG

[11] = biological target: T11, 4H953-bN; experiment: two-hybrid library CCNG1
T11 chain: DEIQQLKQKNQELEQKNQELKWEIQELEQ

[12] = biological target: T12, 4H683-bN; experiment: two-hybrid library CCNG1
T12 chain: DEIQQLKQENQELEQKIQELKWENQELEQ

[13] = biological target: T13, 4H3926-bN; experiment: two-hybrid library CCNG1; conditions: mean of both orientations
T13 chain: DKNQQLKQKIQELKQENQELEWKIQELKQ

[14] = biological target: T14, 4H797-bN; experiment: two-hybrid library CCNG1
T14 chain: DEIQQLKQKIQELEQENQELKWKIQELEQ

[15] = biological target: T15, 4H906-bN; experiment: two-hybrid library CCNG1
T15 chain: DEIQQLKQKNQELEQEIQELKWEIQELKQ

[16] = biological target: T16, 4H918-bN; experiment: two-hybrid library CCNG1
T16 chain: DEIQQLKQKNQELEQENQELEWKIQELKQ

[17] = biological target: T17, 4H626-bN; experiment: two-hybrid library CCNG1
T17 chain: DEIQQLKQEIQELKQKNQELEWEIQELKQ

[18] = biological target: T18, 4H4073-bN; experiment: two-hybrid library CCNG1
T18 chain: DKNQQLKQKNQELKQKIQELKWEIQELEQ

[19] = biological target: T19, 4H968-bN; experiment: two-hybrid library CCNG1
T19 chain: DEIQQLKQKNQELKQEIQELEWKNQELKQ

[20] = biological target: T20, 4H855-bN; experiment: two-hybrid library CCNG1
T20 chain: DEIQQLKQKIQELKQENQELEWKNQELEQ

[21] = biological target: T21, 4H591-bN; experiment: two-hybrid library CCNG1
T21 chain: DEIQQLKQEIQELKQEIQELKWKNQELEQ

[22] = biological target: T22, 4H575-bN; experiment: two-hybrid library CCNG1
T22 chain: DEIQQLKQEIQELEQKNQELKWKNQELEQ

[23] = biological target: T23, 4H457-bN; experiment: two-hybrid library CCNG1
T23 chain: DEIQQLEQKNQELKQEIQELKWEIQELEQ

[24] = biological target: T24, 4H780-bN; experiment: two-hybrid library CCNG1
T24 chain: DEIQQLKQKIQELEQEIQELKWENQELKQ

[25] = biological target: T25, 4H754-bN; experiment: two-hybrid library CCNG1
T25 chain: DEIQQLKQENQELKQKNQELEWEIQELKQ

[26] = biological target: T26, 4H932-bA; experiment: two-hybrid library CCNG1
T26 chain: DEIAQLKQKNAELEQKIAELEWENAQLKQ

[27] = biological target: T27, 4H4001-bA; experiment: two-hybrid library CCNG1
T27 chain: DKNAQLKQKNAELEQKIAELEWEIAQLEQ

[28] = biological target: T28, 4H349-bA; experiment: two-hybrid library CCNG1
T28 chain: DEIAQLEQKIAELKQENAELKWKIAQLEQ

[29] = biological target: T29, 4H3381-bA; experiment: two-hybrid library CCNG1
T29 chain: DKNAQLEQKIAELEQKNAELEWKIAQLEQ

[30] = biological target: T30, 4H730-bA; experiment: two-hybrid library CCNG1
T30 chain: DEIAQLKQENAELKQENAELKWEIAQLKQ

[31] = biological target: T31, 4H949-bA; experiment: two-hybrid library CCNG1
T31 chain: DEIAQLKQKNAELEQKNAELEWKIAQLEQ

[32] = biological target: T32, 4H56-bA; experiment: two-hybrid library CCNG1
T32 chain: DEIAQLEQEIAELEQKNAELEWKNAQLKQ

[33] = biological target: T33, 4H796-bA; experiment: two-hybrid library CCNG1
T33 chain: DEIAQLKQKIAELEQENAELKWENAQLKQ

[34] = biological target: T34, APC5531-AA; experiment: two-hybrid library CCmax; conditions: mean of both orientations
T34 chain: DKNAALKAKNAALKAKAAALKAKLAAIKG

[35] = biological target: T35, APC7524-AA; experiment: two-hybrid library CCmax; conditions: mean of both orientations
T35 chain: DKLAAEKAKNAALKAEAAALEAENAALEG

[36] = biological target: T36, APC9182-AA; experiment: two-hybrid library CCmax; conditions: mean of both orientations
T36 chain: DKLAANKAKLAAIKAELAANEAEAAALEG

[37] = biological target: T37, APC9806-AA; experiment: two-hybrid library CCmax; conditions: mean of both orientations
T37 chain: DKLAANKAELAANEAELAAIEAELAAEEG

[38] = biological target: T38, APC542-AA; experiment: two-hybrid library CCmax; conditions: mean of both orientations
T38 chain: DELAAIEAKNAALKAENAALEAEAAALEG

[39] = biological target: T39, APC3881-AA; experiment: two-hybrid library CCmax
T39 chain: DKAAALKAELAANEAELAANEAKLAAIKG

[40] = biological target: T40, APC6088-AA; experiment: two-hybrid library CCmax; conditions: mean of both orientations
T40 chain: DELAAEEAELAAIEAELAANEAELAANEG

[41] = biological target: T41, APC9291-AA; experiment: two-hybrid library CCmax; conditions: mean of both orientations
T41 chain: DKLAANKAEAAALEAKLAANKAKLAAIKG

[42] = biological target: T42, APC5009-AA; experiment: two-hybrid library CCmax
T42 chain: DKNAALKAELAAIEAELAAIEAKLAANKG

[43] = biological target: T43, APC9141-AA; experiment: two-hybrid library CCmax; conditions: mean of both orientations
T43 chain: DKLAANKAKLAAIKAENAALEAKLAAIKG

[44] = biological target: T44, APC4100-AA; experiment: two-hybrid library CCmax; conditions: mean of both orientations
T44 chain: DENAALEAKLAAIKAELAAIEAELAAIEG

[45] = biological target: T45, APC8516-AA; experiment: two-hybrid library CCmax; conditions: mean of both orientations
T45 chain: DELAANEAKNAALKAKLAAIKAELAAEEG

[46] = biological target: T46, APC4336-AA; experiment: two-hybrid library CCmax; conditions: mean of both orientations
T46 chain: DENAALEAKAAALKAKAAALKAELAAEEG

[47] = biological target: T47, APC8401-AA; experiment: two-hybrid library CCmax; conditions: mean of both orientations
T47 chain: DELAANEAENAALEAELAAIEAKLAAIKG

Binder: DKNQQLKQKIQELKQENQELEWKIQELKQ [4H3926-bN]
- interaction score [11]: -0.788
- interaction score [12]: -1.15
- interaction score [13]: -0.623
- interaction score [14]: -0.358
- interaction score [15]: -0.529
- interaction score [16]: -2.11
- interaction score [17]: -0.388
- interaction score [18]: -1.26
- interaction score [19]: -0.934
- interaction score [20]: -0.684
- interaction score [21]: 0.172
- interaction score [22]: 0.813
- interaction score [23]: 1.06
- interaction score [24]: -0.772
- interaction score [25]: -0.867

Binder: DKNAQLEQKIAELEQKNAELEWKIAQLEQ [4H3381-bA]
- interaction score [26]: -0.845
- interaction score [27]: -0.563
- interaction score [28]: -1.06
- interaction score [29]: 0.241
- interaction score [30]: -1.47
- interaction score [31]: -1.1
- interaction score [32]: -0.961
- interaction score [33]: -0.941

The remaining lines, values ahead:

- interaction score [1]: -1.72
- interaction score [2]: -1.45
- interaction score [3]: -1.43
- interaction score [4]: 0.352
- interaction score [5]: -1.48
- interaction score [6]: -1.88
- interaction score [7]: -1.52
- interaction score [8]: -1.55
- interaction score [9]: 2.04
- interaction score [10]: -1.27
Binder: DENAALEAELAAIEAKLAAIKAKLAAIKG [APC4011-AA]

- interaction score [34]: -1.92
- interaction score [35]: -1.49
- interaction score [36]: -1.63
- interaction score [37]: -1.72
- interaction score [38]: -1.63
- interaction score [39]: -1.67
- interaction score [40]: -1.78
- interaction score [41]: -2.12
- interaction score [42]: -1.15
- interaction score [43]: -1.38
- interaction score [44]: -1.25
- interaction score [45]: -1.39
- interaction score [46]: -1.5
- interaction score [47]: -1.61
Binder: DKAAALKAELAANEAELAANEAKLAAIKG [APC3881-AA]
